Test results taken from patent publication US20240043515A1 (Chugai, published 2024).
Changes are numbered by the printed parent chain. In names and notes the source's numbering stands.

T1: hFcγRIIaH on Jurkat effector cells (human, UniProt P12318 34-317)
T1 sequence (looked up): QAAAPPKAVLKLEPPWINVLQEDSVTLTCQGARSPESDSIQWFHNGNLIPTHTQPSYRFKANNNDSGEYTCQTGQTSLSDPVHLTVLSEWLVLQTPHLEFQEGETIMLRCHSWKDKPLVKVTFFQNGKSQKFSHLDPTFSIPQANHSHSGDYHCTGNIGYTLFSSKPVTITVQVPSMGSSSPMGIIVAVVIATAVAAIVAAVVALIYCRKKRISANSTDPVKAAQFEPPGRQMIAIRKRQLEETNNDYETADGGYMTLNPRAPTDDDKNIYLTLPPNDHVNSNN

T2: human FcγRIIa H extracellular domain (human, UniProt P12318 34-217)
T2 construct: extracellular domain; also called hFcγR IIa H; FcγRIIa allotype H131
T2 sequence (looked up): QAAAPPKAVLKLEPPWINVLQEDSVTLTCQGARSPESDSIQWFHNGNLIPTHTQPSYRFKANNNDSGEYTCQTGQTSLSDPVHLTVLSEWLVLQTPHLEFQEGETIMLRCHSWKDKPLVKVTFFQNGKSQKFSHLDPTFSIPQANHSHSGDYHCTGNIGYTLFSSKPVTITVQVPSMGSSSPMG

T3: human FcγRIIa R extracellular domain (human, UniProt P12318 34-217)
T3 construct: extracellular domain; also called hFcγR IIa R; FcγRIIa allotype R131
T3 sequence (looked up): T2 sequence (looked up) with H134R

T4: human FcγRIIb extracellular domain (human, UniProt P31994 43-217)
T4 construct: extracellular domain; also called hFcγR IIb
T4 sequence (looked up): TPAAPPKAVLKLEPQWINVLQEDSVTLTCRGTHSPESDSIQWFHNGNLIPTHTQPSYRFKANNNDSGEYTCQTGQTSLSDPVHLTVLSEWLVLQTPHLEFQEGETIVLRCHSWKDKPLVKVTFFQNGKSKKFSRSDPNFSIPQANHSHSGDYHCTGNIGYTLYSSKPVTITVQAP

B1: EGL-ART11 (H240-Kn496/L73-k0//H240-H1516/L73-k0) (antibody, human IgG1, kappa)
heavy 1: QDQLVQSGAEVKKPGASVKVSCKASGFNIKDTYIQWVRQAPGQGLEWMGRIDPLRKQTKYREKFEGRVTITADTSTNTAYMELSSLRSEDTAVYYCVRSGREFDYWGQGTLVTVSSASTKGPSVFPLAPSSKSTSGGTAALGCLVKDYFPEPVTVSWNSGALTSGVHTFPAVLQSSGLYSLSSVVTVPSSSLGTQTYICNVNHKPSNTKVDKKVEPKSCDKTHTCPPCPAPEFQWGPMVFLFPPKPKDVLMISRTPEVTCVVVDVSDEEPEVKFNWYVDGVEVHNAKTKPREEQYNATYRVVSVLPVLHQDWLNGKEYKCKVSNKALPAPIEKTISKAKGQPREPQVCTLPPSRDELTKNQVSLWCLVKGFYPSDIAVEWESNGQPENNYKTTPPVLDSDGSFFLYSKLTVDKSRWQQGNVFSCSVMHEALHNHYTQKSLSLSP
heavy 2: QDQLVQSGAEVKKPGASVKVSCKASGFNIKDTYIQWVRQAPGQGLEWMGRIDPLRKQTKYREKFEGRVTITADTSTNTAYMELSSLRSEDTAVYYCVRSGREFDYWGQGTLVTVSSASTKGPSVFPLAPSSKSTSGGTAALGCLVKDYFPEPVTVSWNSGALTSGVHTFPAVLQSSGLYSLSSVVTVPSSSLGTQTYICNVNHKPSNTKVDKKVEPKSCDKTHTCPPCPAPELLGGPSVFLFPPKPKDVLMISRTPEVTCVVVDVSHEEPEVKFNWYVDGVEVHNAKTKPREEQYNATYRVVSVLPVLHQDWLNGKEYKCKVSNDALPAPIEETISKAKGQPREPQVYTLPPSRCELTKNQVSLSCAVKGFYPSDIAVEWESNGQPENNYKTTPPVLDSDGSFFLVSKLTVDKSRWQQGNVFSCSVMHEALHNHYTQKSLSLSP
light: DIQMTQSPSSLSASVGDRVTITCRASQDIHKYIAWYQQKPGQAPRLLIQYTSTLQPGVPSRFSGSGSGTDYTFTISSLQPEDIATYYCLQYEQLRTFGGGTKVEIKRTVAAPSVFIFPPSDEQLKSGTASVVCLLNNFYPREAKVQWKVDNALQSGNSQESVTEQDSKDSTYSLSSTLTLSKADYEKHKVYACEVTHQGLSSPVTKSFNRGEC
notes: Kn496: L234F/L235Q/G236W/S239M/T250V/H268D/D270E/S298A/T307P + Y349C/T366W; H1516: T250V/D270E/S298A/T307P/K326D/K334E + D356C/T366S/L368A/Y407V
B2: EGL-ART2 (H240-Kn120/L73-k0//H240-H1068/L73-k0) (antibody, human IgG1, kappa)
heavy 1: B1 heavy 1 with F233Y, Q234Y, V249T, E269D, P306T, A326D
heavy 2: B1 heavy 2 with V249T, A297S, P306T, A329K
light: B1 light
notes: Kn120: L234Y/L235Y/G236W/S239M/H268D/S298A/A327D + Y349C/T366W; also called Kn120/H1068
B3: EGL-ART3 (H240-Kn443/L73-k0//H240-H1408/L73-k0) (antibody, human IgG1, kappa)
heavy 1: B1 heavy 1 with V249T, P306T, K325D
heavy 2: B1 heavy 2 with G235A, V249T, P306T
light: B1 light
notes: Kn443: L234F/L235Q/G236W/S239M/H268D/D270E/S298A/K326D + Y349C/T366W; H1408: G236A/D270E/S298A/K326D/K334E + D356C/T366S/L368A/Y407V
B4: EGL-ART1 (H240-Kn125/L73-k0//H240-H1076/L73-k0) (antibody, human IgG1, kappa)
heavy 1: B1 heavy 1 with F233Y, V249T, P306T
heavy 2: B1 heavy 2 with V249T, A297S, P306T, A329M
light: B1 light
notes: Heterodimeric Fc variant of the anti-human Epiregulin IgG1; Kn125: L234Y/L235Q/G236W/S239M/H268D/D270E/S298A + Y349C/T366W; H1076: D270E/K326D/A330M/K334E + D356C/T366S/L368A/Y407V (EU numbering); also called Kn125/H1076
B5: EGL-GASDALIE (H240-GASDALIE/L73-k0) (antibody, human IgG1, kappa)
heavy: QDQLVQSGAEVKKPGASVKVSCKASGFNIKDTYIQWVRQAPGQGLEWMGRIDPLRKQTKYREKFEGRVTITADTSTNTAYMELSSLRSEDTAVYYCVRSGREFDYWGQGTLVTVSSASTKGPSVFPLAPSSKSTSGGTAALGCLVKDYFPEPVTVSWNSGALTSGVHTFPAVLQSSGLYSLSSVVTVPSSSLGTQTYICNVNHKPSNTKVDKKVEPKSCDKTHTCPPCPAPELLAGPDVFLFPPKPKDTLMISRTPEVTCVVVDVSHEDPEVKFNWYVDGVEVHNAKTKPREEQYNSTYRVVSVLTVLHQDWLNGKEYKCKVSNKALPLPEEKTISKAKGQPREPQVYTLPPSRDELTKNQVSLTCLVKGFYPSDIAVEWESNGQPENNYKTTPPVLDSDGSFFLYSKLTVDKSRWQQGNVFSCSVMHEALHNHYTQKSLSLSP
light: B1 light
B6: EGL-SDALIE (H240-Kn032/L73-k0//H240-H1032/L73-k0) (antibody, human IgG1, kappa)
heavy 1: B5 heavy with A235G, Y348C, T365W
heavy 2: B5 heavy with A235G, D355C, T365S, L367A, Y406V
light: B1 light
notes: S239D/A330L/I332E in both heavy chains; Kn032 with Y349C/T366W, H1032 with D356C/T366S/L368A/Y407V
B7: EGL-G1d (H240-G1d/L73-k0) (antibody, human IgG1, kappa)
heavy: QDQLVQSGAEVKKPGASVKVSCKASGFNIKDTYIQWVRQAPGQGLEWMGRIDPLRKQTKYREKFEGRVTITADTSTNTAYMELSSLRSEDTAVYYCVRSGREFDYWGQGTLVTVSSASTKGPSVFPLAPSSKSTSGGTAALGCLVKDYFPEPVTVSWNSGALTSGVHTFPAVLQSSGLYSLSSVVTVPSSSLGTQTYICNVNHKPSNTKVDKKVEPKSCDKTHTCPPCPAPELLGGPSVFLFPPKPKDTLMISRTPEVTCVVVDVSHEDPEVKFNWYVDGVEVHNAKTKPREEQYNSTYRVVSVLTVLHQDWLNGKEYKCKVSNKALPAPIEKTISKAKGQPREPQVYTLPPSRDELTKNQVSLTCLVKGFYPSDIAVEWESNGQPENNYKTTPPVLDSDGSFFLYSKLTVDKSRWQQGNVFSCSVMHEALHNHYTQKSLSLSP
light: B1 light
notes: Anti-human Epiregulin antibody with a human IgG1 constant region lacking C-terminal Gly-Lys (G1d); also called Gld; anti-hEREG control antibody

These binders were tested against T1, hFcγRIIaH on Jurkat effector cells (assay: cell-based or functional assay).

Binder | EC50 of reporter gene induction (ADCP Reporter Bioassay, Hepa1-6/hEREG target cells)
B1 | 36.7 ng/mL
B2 | 21.8 ng/mL
B3 | 15.8 ng/mL
B4 | 35.3 ng/mL
B5 | 32.4 ng/mL

These binders were tested against T5, human FcγRIIIa V extracellular domain (human, UniProt P08637 17-208) (assay: SPR; KD of G1d divided by KD of this antibody).
T5 construct: extracellular domain; also called hFcγR IIIa V; FcγRIIIa allotype V158
T5 sequence (P08637 17-208 F176V): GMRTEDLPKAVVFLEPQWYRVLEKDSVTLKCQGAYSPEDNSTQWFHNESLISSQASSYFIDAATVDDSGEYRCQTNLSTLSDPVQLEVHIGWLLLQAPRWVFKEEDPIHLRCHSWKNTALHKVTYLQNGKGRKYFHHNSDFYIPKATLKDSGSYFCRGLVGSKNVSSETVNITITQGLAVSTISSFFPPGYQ
Description: (§1) The extracellular domains of FcγRs were produced by the method described in WO2014104165. The interaction between the produced antibodies and human FcγRs was analyzed using Biacore 8K+ by the method below. For the running buffer, 50 mM Na-Phosphate, 150 mM NaCl, and 0.05% Tween20 (pH 7.4) was used, and measurement was performed at 25° C. The sensor chip used was a Series S SA chip (GE Healthcare) onto which CaptureSelect Human Fab-kappa Kinetics Biotin Conjugate (Thermo Fisher Scientific) was immobilized. An antibody of interest was captured onto this chip, and each FcγR diluted with the running buffer was allowed to interact with it. The chip was regenerated using 10 mM Glycine-HCl (pH 1.5), and repeatedly used to capture antibodies and perform measurement. The dissociation constants KD (mol/L) of each antibody for FcγRs were calculated using Biacore Insight Evaluation Software, with a steady state affinity model for the dissociation constant for FcγRIIb and a 1:1 Langmuir binding model for the dissociation constants for the other FcγRs (Table 2).

Binder | Relative value to KD between G1d and hFcgRs
B6 | 36.8 times
B1 | 97.5 times
B2 | 215 times
B3 | 114 times
B4 | 323 times

Each binder was assayed against T2, human FcγRIIa H extracellular domain (assay: SPR; KD of G1d divided by KD of this antibody).
Description: as §1

Binder | Relative value to KD between G1d and hFcgRs
B7 | 1 times
B6 | 1 times
B1 | 4.9 times
B2 | 14.7 times
B3 | 32.1 times
B4 | 4.3 times
B5 | 6.9 times

Each binder was assayed against T3, human FcγRIIa R extracellular domain (assay: SPR; KD of G1d divided by KD of this antibody).
Description: as §1

Binder | Relative value to KD between G1d and hFcgRs
B7 | 1 times
B6 | 1.8 times
B1 | 1.3 times
B2 | 49 times
B3 | 13.7 times
B4 | 1.6 times
B5 | 10.3 times

These binders were tested against T6, human FcγRIa extracellular domain (human, UniProt P12314 16-292) (assay: SPR; KD of G1d divided by KD of this antibody).
T6 construct: extracellular domain; also called hFcγR Ia
T6 sequence (P12314 16-292): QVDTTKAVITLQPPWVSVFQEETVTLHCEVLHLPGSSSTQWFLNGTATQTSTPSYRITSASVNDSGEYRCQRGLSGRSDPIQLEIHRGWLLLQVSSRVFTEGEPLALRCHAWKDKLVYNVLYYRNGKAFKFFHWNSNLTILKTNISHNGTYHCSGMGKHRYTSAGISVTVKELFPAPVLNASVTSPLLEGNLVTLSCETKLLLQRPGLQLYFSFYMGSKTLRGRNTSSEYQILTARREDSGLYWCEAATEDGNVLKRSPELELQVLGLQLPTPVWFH
Description: as §1

Binder | Relative value to KD between G1d and hFcgRs
B7 | 1 times
B6 | 54.3 times
B1 | 2.4 times
B2 | 3.4 times
B3 | 0.5 times
B4 | 3 times
B5 | 21.3 times

Each binder was assayed against T4, human FcγRIIb extracellular domain (assay: SPR; KD of G1d divided by KD of this antibody).
Description: as §1

Binder | Relative value to KD between G1d and hFcgRs
B7 | 1 times
B6 | 3.9 times
B1 | 0.7 times
B2 | 22.8 times
B3 | 1.6 times
B4 | 0.8 times
B5 | 3.8 times

What follows are binders tested against T7, human FcγRIIIa F extracellular domain (human, UniProt P08637 17-208) (assay: SPR; KD of G1d divided by KD of this antibody).
T7 construct: extracellular domain; also called hFcγR IIIa F; FcγRIIIa allotype F158
T7 sequence (P08637 17-208): as the sequence (P08637 17-208 F176V) above, with V160F counted along it
Description: as §1

Binder | Relative value to KD between G1d and hFcgRs
B7 | 1 times
B6 | 113 times
B1 | 141 times
B2 | 460 times
B3 | 185 times
B4 | 1170 times
B5 | 99.1 times

These binders were tested against T5, human FcγRIIIa V extracellular domain (assay: SPR; KD for hFcγRIIb divided by KD for this FcγR).
Description: as §1

Binder | A/I ratio (KD for FcγRIIb divided by KD for each FcγR)
B6 | 266 ratio
B1 | 3970 ratio
B2 | 264 ratio
B3 | 2000 ratio
B4 | 11300 ratio

The binders below were run against T2, human FcγRIIa H extracellular domain (assay: SPR; KD for hFcγRIIb divided by KD for this FcγR).
Description: as §1

Binder | A/I ratio (KD for FcγRIIb divided by KD for each FcγR)
B7 | 8.9 ratio
B6 | 2.2 ratio
B1 | 63.3 ratio
B2 | 5.8 ratio
B3 | 181 ratio
B4 | 47.4 ratio
B5 | 16.5 ratio

Each binder was assayed against T3, human FcγRIIa R extracellular domain (assay: SPR; KD for hFcγRIIb divided by KD for this FcγR).
Description: as §1

Binder | A/I ratio (KD for FcγRIIb divided by KD for each FcγR)
B7 | 6.1 ratio
B6 | 2.8 ratio
B1 | 11.5 ratio
B2 | 13 ratio
B3 | 52.4 ratio
B4 | 12.4 ratio
B5 | 16.5 ratio

These binders were tested against T7, human FcγRIIIa F extracellular domain (assay: SPR; KD for hFcγRIIb divided by KD for this FcγR).
Description: as §1

Binder | A/I ratio (KD for FcγRIIb divided by KD for each FcγR)
B7 | 3.4 ratio
B6 | 98.7 ratio
B1 | 694 ratio
B2 | 68.4 ratio
B3 | 396 ratio
B4 | 4950 ratio
B5 | 89.3 ratio

What follows are binders tested against hFcγRIIIaV on Jurkat effector cells (human, UniProt P08637 17-254) (assay: cell-based or functional assay).
hFcγRIIIaV on Jurkat effector cells, sequence (P08637 17-254, form in doubt): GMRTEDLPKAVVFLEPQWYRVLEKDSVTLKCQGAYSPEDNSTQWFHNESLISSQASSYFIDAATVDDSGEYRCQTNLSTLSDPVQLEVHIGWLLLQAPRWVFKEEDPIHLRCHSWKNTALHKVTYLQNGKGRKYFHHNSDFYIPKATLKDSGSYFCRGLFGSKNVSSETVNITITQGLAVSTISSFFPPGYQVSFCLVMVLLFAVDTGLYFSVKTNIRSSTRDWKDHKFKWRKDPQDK

Binder | EC50 of reporter gene induction (ADCC Reporter Bioassay, Hepa1-6/hEREG target cells)
B7 | 46.3 ng/mL
B6 | 1.78 ng/mL
B1 | 0.413 ng/mL
B2 | 1.35 ng/mL
B3 | 1.53 ng/mL
B4 | 0.716 ng/mL
B5 | 2.08 ng/mL
